For 6 substances, Kd, koff and kon results are on record in patent US20150158934A1.

As a reminder, the Kd is the constant that tells how readily two partners part at equilibrium. In general, koff refers to the first-order rate constant of dissociation. As usually defined, the kon is the rate constant with which the complex forms. A higher kon goes with faster complex formation.

Experiment in all cases: SPR
The target in test [1] is gp140UG37 (subtype A), gp140 envelope glycoprotein from the HIV-1 group M A-clade isolate 92UG037 (HIV-1).
Test [2] concerns the target CA018 gp140/420 (A/G) (HIV-1).
Test [3] has as its target gp140CN54 (subtype B'/C), gp140 envelope glycoprotein from the HIV-1 group M CRF07-B/C-clade isolate 97CN54 (HIV-1).
Test [4] addresses gp120IIIB (subgroup B) (HIV-1) (UniProt P04578).

On to mAb 2F5 (antibody), for which, in test [1], the Kd was determined as 58.5 nM, the koff amounted to 0.422 s⁻¹ and the kon stood at 80900 M⁻¹ s⁻¹.
Take mAb 2G12 (antibody): in test [2], the dissociation constant (Kd) amounted to 537 nM, the koff is 0.342 s⁻¹ and the kon stood at 500000 M⁻¹ s⁻¹. In test [1], this substance gave a Kd of 393 nM, a koff of 0.349 s⁻¹ and a kon of 695000 M⁻¹ s⁻¹.
With mAb 17b (antibody), in test [2], the Kd amounted to 1.07 nM, the koff was 0.000637 s⁻¹ and the kon came to 593000 M⁻¹ s⁻¹. Besides, in test [3], the Kd stood at 6.15 nM, the koff was found to be 0.000171 s⁻¹ and the kon is 27700 M⁻¹ s⁻¹. In test [1], this substance showed a dissociation constant (Kd) of 2.64 nM, a koff of 0.000135 s⁻¹ and a kon of 51000 M⁻¹ s⁻¹.
Consider mAb HJ16 (antibody), for which, in test [2], the Kd was found to be 1030 nM, the koff is 0.0382 s⁻¹ and the kon was 37200 M⁻¹ s⁻¹. In test [4], this substance showed a Kd of 3.03 nM, a koff of 0.000156 s⁻¹ and a kon of 51500 M⁻¹ s⁻¹. In test [1], the Kd is 88.5 nM, the koff amounted to 0.341 s⁻¹ and the kon was determined as 424000 M⁻¹ s⁻¹.
On to mAb b12 (antibody), for which the figures for the Kd in test [2], in test [3] and in test [1] were 18.8 nM, 167 nM and 233 nM, respectively. In addition, the figures for the koff in test [2], in test [3] and in test [1] were 0.0271 s⁻¹, 0.00228 s⁻¹ and 0.301 s⁻¹, respectively. The kon in test [2] turned out to be 1.43e+06 M⁻¹ s⁻¹; in test [3], 13600 M⁻¹ s⁻¹; in test [1], 1.29e+06 M⁻¹ s⁻¹.
Regarding “sCD4 (2-D) (from UniProt P01730 26-208) (receptor)”, in test [4], the Kd is 0.942 nM, the dissociation rate constant (koff) amounted to 6e-05 s⁻¹ and the kon amounted to 63700 M⁻¹ s⁻¹. In test [1], the Kd was 39.8 nM, the koff stood at 0.000249 s⁻¹ and the kon is 6250 M⁻¹ s⁻¹.
